Test in all cases: BLI
The target of experiment [1] is T1, Avi-tagged, biotinylated h14-3-3ß WT (human, UniProt P31946 1-239, biotin on the N-terminal Avi tag).
T1 chain: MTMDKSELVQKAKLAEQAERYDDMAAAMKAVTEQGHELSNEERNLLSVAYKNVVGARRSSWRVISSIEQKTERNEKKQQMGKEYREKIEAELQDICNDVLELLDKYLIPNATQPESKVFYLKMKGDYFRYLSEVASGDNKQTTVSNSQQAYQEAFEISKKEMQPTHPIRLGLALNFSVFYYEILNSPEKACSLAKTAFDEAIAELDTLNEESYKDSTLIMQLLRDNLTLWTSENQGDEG

The target in experiment [2] is T2, Avi-tagged, biotinylated h14-3-3ß_(nY130) (human, UniProt P31946 1-246, 3-nitrotyrosine at 130; biotin on the N-terminal Avi tag).
T2 chain: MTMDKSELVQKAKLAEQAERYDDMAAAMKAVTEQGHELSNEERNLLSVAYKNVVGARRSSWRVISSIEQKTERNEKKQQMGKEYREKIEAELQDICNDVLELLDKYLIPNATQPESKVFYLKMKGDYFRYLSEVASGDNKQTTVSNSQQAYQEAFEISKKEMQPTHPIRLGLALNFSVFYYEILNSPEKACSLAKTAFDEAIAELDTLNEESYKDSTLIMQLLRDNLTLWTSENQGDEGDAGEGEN

In experiment [3] the target is T3, Avi-tagged, biotinylated h14-3-3ß_(nY213) (human, UniProt P31946 1-246, 3-nitrotyrosine at 213; biotin on the N-terminal Avi tag).
T3 chain: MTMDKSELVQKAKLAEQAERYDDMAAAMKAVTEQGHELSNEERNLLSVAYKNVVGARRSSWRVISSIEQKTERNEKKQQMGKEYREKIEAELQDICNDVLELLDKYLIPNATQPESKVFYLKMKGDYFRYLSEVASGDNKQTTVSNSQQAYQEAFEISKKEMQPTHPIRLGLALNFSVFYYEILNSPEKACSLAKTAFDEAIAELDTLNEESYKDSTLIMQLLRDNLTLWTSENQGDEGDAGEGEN

B1: Nb-G5 (C115S) (VHH)
VHH: QVQLQESGGGLVQPGGSLRLSCAASKNIANFDSMAWYRRSPGKERDLVARLYSDGGTNYEDSVKGRFNISTDIEKNTVYLQMNNLKLEDTARYYCRADLGLFDTSEFPGQGTQVTVSS
As for B1, the Kd is 91 nM in experiment [1], 100 nM in experiment [2] and 104 nM in experiment [3].

Source of the values: PMC8899190 (2022).
